Measurements taken from PMC11815680, “Receptor-independent regulation of Gα13 by alpha-1-antitrypsin C-terminal peptides” (The Journal of Biological Chemistry, 2024).

What was measured:
Conditions in all cases: both partners purified
[1] = molecular target: T1, GST-p115-RH (human p115RhoGEF amino acid residues 1-252, N-terminal region including the RH domain) (human, UniProt Q92888 1-252); assay: pull-down; GST-RH protein on glutathione-Sepharose 4B, untagged Gα13iN (2 μg) in buffer A (20 mM HEPES, 5 mM βME, 1 mM MgCl2, 100 mM NaCl, 10 μM GDP, 0.1% C12E10, pH 8.0) with AlF4^- (30 μM AlCl3, 5 mM MgCl2, 5 mM NaF), 60 min at 4 °C; blot with Gα13 antibodies
T1 construct: human p115RhoGEF, amino acid residues 1-252 (the results once say 1-246); also called p115-RhoGEF-RH; source: E. coli BL21[DE3], purified (glutathione-sepharose 4B, eluted with glutathione, dialysed)
T1 sequence (looked up): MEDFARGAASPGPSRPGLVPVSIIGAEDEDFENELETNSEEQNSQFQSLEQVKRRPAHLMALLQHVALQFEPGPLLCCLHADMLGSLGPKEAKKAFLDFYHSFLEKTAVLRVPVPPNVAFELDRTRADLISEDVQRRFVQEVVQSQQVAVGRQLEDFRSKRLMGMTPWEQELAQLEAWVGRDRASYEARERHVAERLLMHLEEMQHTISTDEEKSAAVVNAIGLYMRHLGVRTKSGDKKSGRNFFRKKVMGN

[2] = molecular target: T2, GST-LARG-RH (human LARG amino acid residues 319-598) (human, UniProt Q9NZN5 319-598); assay: pull-down; as a2 but buffer A with 10 μM GDP and mAAT-C_(3-16) added instead of AlF4^-
T2 construct: human LARG (leukemia-associated RhoGEF), amino acid residues 319-598; also called leukemia-associated RhoGEF RH; source: E. coli BL21[DE3], purified (glutathione-sepharose 4B, eluted with glutathione, dialysed)
T2 sequence (looked up): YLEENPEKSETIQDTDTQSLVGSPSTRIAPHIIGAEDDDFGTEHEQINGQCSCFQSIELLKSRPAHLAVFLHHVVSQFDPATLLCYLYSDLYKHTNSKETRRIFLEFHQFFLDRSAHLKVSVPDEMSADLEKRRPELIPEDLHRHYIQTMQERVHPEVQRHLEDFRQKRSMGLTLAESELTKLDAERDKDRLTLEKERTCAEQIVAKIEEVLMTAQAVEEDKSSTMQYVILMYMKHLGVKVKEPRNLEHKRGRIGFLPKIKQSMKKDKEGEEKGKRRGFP

[3] = molecular target: T3, GST-p115-RH(42-252), the RGS box of p115-RhoGEF-RH which lacks the N-terminal extension (human, UniProt Q92888 42-252); assay: pull-down; as a2 but buffer A with 10 μM GDP and mAAT-C_(1-17) added instead of AlF4^-
T3 construct: human p115RhoGEF, residues 42-252 (RGS box, lacks the N-terminal extension); also called p115-RhoGEF-RH domain (42–252); source: E. coli BL21[DE3], purified (glutathione-sepharose 4B, eluted with glutathione, dialysed)
T3 sequence (looked up): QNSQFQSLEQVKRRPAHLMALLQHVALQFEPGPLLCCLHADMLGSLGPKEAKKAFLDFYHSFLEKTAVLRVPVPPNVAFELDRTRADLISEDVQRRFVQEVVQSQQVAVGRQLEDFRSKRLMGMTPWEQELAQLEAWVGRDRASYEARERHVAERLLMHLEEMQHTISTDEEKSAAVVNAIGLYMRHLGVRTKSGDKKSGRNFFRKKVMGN

Measured: binding result

B1: untagged Gα13iN recombinant protein (GDP-bound) (other, rat | mouse, UniProt P10824 1-28, looked up)
chain: MGCTLSAEDKAAVERSKMIDRNLREDGERLVKILLLGAGESGKSTFLKQMRIIHGQDFDQRAREEFRPTIYSNVIKGMRVLVDAREKLHIPWGDNKNQLHGDKLMAFDTRAPMAAQGMVETRVFLQYLPAIRALWEDSGIQNAYDRRREFQLGESVKYFLDNLDKLGVPDYIPSQQDILLARRPTKGIHEYDFEIKNVPFKMVDVGGQRSERKRWFECFDSVTSILFLVSSSEFDQVLMEDRQTNRLTESLNIFETIVNNRVFSNVSIILFLNKTDLLEEKVQVVSIKDYFLEFEGDPHCLRDVQKFLVECFRGKRRDQQQRPLYHHFTTAINTENIRLVFRDVKDTILHDNLKQLMLQ
notes: N-terminal region (αN helix) of rat Gαi1, amino acid residues 1-28; A few vector residues are likely left after PreScission cleavage of the pGEX-6P-1 product (surmise); also called Gα13iN・GDP; Gα13・GDP; source: E. coli BL21[DE3], purified (glutathione-sepharose 4B, cut off the column with PreScission Protease, dialysed; GDP added to 10 μM)
binds: all assays above
